The results in this text go back to doi:10.1101/651877 (bioRxiv, 2019).

Changes are numbered by the printed parent chain. Numbers in names are those of the source.

For data set [1], the target named is wild type Mfn2 with a C-terminal 3xFLAG tag (UniProt Q80U63). The data set can be described thus: native gel or EMSA.
Data set [2] concerns the molecule itself. The data set can be described thus: native gel or EMSA.

The molecule “wild type Mfn2 with a C-terminal 3xFLAG tag (from UniProt Q80U63 1-757) (natural protein)” returned a stoichiometry N in data set [1] of 2.

B1: Mfn2^S378P with a C-terminal 3xFLAG tag (natural protein, UniProt Q80U63 1-757, looked up)
chain: MSLLFSRCNSIVTVKKDKRHMAEVNASPLKHFVTAKKKINGIFEQLGAYIQESASFLEDTHRNTELDPVTTEEQVLDVKGYLSKVRGISEVLARRHMKVAFFGRTSNGKSTVINAMLWDKVLPSGIGHTTNCFLRVGGTDGHEAFLLTEGSEEKKSVKTVNQLAHALHQDEQLHAGSMVSVMWPNSKCPLLKDDLVLMDSPGIDVTTELDSWIDKFCLDADVFVLVANSESTLMQTEKQFFHKVSERLSRPNIFILNNRWDASASEPEYMEEVRRQHMERCTSFLVDELGVVDRAQAGDRIFFVSAKEVLSARVQKAQGMPEGGGALAEGFQVRMFEFQNFERQFEECISQSAVKTKFEQHTVRAKQIAEAVRLIMDPLHIAAQEQRVYCLEMREERQDRLRFIDKQLELLAQDYKLRIKQITEEVERQVSTAMAEEIRRLSVLVDEYQMDFHPSPVVLKVYKNELHRHIEEGLGRNLSDRCSTAIASSLQTMQQDMIDGLKPLLPVSMRNQIDMLVPRQCFSLSYDLNCDKLCADFQEDIEFHFSLGWTMLVNRFLGPKNSRRALLGYSDQVQRPLPLTPANPSMPPLPQSSLTQEELMVSMVTGLASLTSRTSMGILVVGGVVWKAVGWRLIALSFGLYGLLYVYERLTWTTKAKERAFKRQFVEYASEKLQLIISYTGSNCSHQVQQELSGTFAHLCQQVDITRDNLEQEIAAMNKKVEALDSLQSRAKLLRNKAGWLDSELNMFTHQYLQPSR
As to B1, the “stoichiometry N” value in data set [2] came out at 2.

B2: Mfn2^Q386P with a C-terminal 3xFLAG tag (natural protein, UniProt Q80U63 1-757, looked up)
chain: B1 chain with P378S, Q386P
On to B2, for which the “stoichiometry N” value in data set [2] came to 2.

B3: Mfn2^C390F with a C-terminal 3xFLAG tag (natural protein, UniProt Q80U63 1-757, looked up)
chain: B1 chain with P378S, C390F
In the case of B3, the “stoichiometry N” value in data set [2] was found to be 2.

B4: Mfn2^A383V with a C-terminal 3xFLAG tag (natural protein, UniProt Q80U63 1-757, looked up)
chain: B1 chain with P378S, A383V
Consider B4, for which the “stoichiometry N” value in data set [2] came out at 2.
